Assay results: patent US20150224182A1 (UNIVERSITY OF VIRGINIA PATENT FOUNDATION, published 2015)
Non-standard residues stand in square brackets, D forms with d. No end group written: not given here. pT = C[C@@H](OP(=O)(O)O)[C@H](N)C(=O)O; pS = N[C@@H](COP(=O)(O)O)C(=O)O

Legend:
HLA-A*0201 = biological target: T1, HLA-A*0201 (human); test: listed as presented with class I MHC on cancer cells (leukemia or transformed B cells)
T1 construct: also called HLA-A2

HLA B*0702 = biological target: T2, HLA B*0702 (human); test: MS of peptides eluted from HLA; L/M column: L
T2 construct: Class I MHC molecule of the cells from which the associated phosphopeptides were detected; also called HLA-B7

Binder	binding result (HLA-A*0201)	binding result (HLA B*0702)
ALD[pS]GASLLHL [ALDsGASLLHL]	binds	
ALG[pS]RESLATI [ALGsRESLATI]	binds	
AMLGSK[pS]PDPYRL (From Protein SON, UniProt P18583) [AMLGSKsPDPYRL]	binds	
AVIHQ[pS]LGL (From Protein CNPPD1, UniProt Q9BV87) [AVIHQsLGL]	binds	
EPKRR[pS]ARL [EPKRRsARL]		binds
FRR[pS]PTKSSL [FRRsPTKSSL]		binds
FRR[pS]PTKSSLDY [FRRsPTKSSLDY]		binds
FSI[pS]PVRL [FSIsPVRL]		binds
KPA[pS]PARRL [KPAsPARRL]		binds
KPA[pS]PKFIVTL [KPAsPKFIVTL]		binds
KPPH[pS]PLVL [KPPHsPLVL]		binds
KPP[pS]PEHQSL [KPPsPEHQSL]		binds
KPP[pT]PGASF [KPPtPGASF]		binds
KPPYRSH[pS]L [KPPYRSHsL]		binds
KPQTRGK[pT]F [KPQTRGKtF]		binds
KPR[pS]PDHVL [KPRsPDHVL]		binds
KPY[pS]PLASL [KPYsPLASL]		binds
LPA[pS]PRARL [LPAsPRARL]		binds
QPR[pS]PGPDYSL [QPRsPGPDYSL]		binds
RAP[pS]PSSRM [RAPsPSSRM]		binds
RPAK[pS]MDSL [RPAKsMDSL]		binds
RPA[pS]AGAML [RPAsAGAML]		binds
RPA[pT]GGPGVA [RPAtGGPGVA]		binds
RPD[pS]RLGKTEL [RPDsRLGKTEL]		binds

Binder	binding result (HLA-A*0201)	binding result (HLA B*0702)
RPF[pS]PREAL [RPFsPREAL]		binds
RPH[pS]PEKAF [RPHsPEKAF]		binds
RPI[pT]PPRNSA [RPItPPRNSA]		binds
RPKLS[pS]PAL [RPKLSsPAL]		binds
RPKPSS[pS]PV [RPKPSSsPV]		binds
RPN[pS]PSPTAL [RPNsPSPTAL]		binds
RPPPPPD[pT]PP [RPPPPPDtPP]		binds
RPP[pS]PGPVL [RPPsPGPVL]		binds
RPP[pS]SEFLDL [RPPsSEFLDL]		binds
RPQRA[pT]SNVF [RPQRAtSNVF]		binds
RPQRAT[pS]NVF [RPQRATsNVF]		binds
RPRAN[pS]GGVDL [RPRANsGGVDL]		binds
RPRPH[pS]APSL [RPRPHsAPSL]		binds
RPR[pS]AVLL [RPRsAVLL]		binds
RPR[pS]LEVTI [RPRsLEVTI]		binds
RPR[pS]PAARL [RPRsPAARL]		binds
RPR[pS]PGSNSKV [RPRsPGSNSKV]		binds
RPR[pS]PRQNSI [RPRsPRQNSI]		binds
RPR[pS]PSPIS [RPRsPSPIS]		binds
RPR[pS]PTGP [RPRsPTGP]		binds
RPR[pS]PTGP[pS]NSF [RPRsPTGPsNSF]		binds
RPSRS[pS]PGL [RPSRSsPGL]		binds
RP[pS]SPALYF [RPsSPALYF]		binds
RPV[pS]PGKDI [RPVsPGKDI]		binds

Binder	binding result (HLA-A*0201)	binding result (HLA B*0702)
RPV[pT]PVSDL [RPVtPVSDL]		binds
RPW[pS]PAVSA [RPWsPAVSA]		binds
RPY[pS]PPFFSL [RPYsPPFFSL]		binds
RRK[pS]QVAEL [RRKsQVAEL]		binds
RRS[pS]LDAEIDSL [RRSsLDAEIDSL]		binds
RSE[pS]KDRKL [RSEsKDRKL]		binds
RSG[pS]LERKV [RSGsLERKV]		binds
RSL[pS]PGGAA [RSLsPGGAA]		binds
RSL[pS]PLLF [RSLsPLLF]		binds
RTE[pS]DSGLKK [RTEsDSGLKK]		binds
SPA[pS]PKISL [SPAsPKISL]		binds
SPEKAGRR[pS]SL [SPEKAGRRsSL]		binds
SPGLARKR[pS]L [SPGLARKRsL]		binds
SPK[pS]PGLKA [SPKsPGLKA]		binds
SPR[pS]PGKPM [SPRsPGKPM]		binds
SPR[pS]PSTTYL [SPRsPSTTYL]		binds
SPS[pS]PSVRRQL [SPSsPSVRRQL]		binds
SPSTSRSGG[pS]SRL [SPSTSRSGGsSRL]		binds
TPAQPQRR[pS]L [TPAQPQRRsL]		binds
TPI[pS]PGRASGM [TPIsPGRASGM]		binds
VPR[pS]PKHAHSSSL [VPRsPKHAHSSSL]		binds
YQR[pS]FDEVEGV [YQRsFDEVEGV]		binds
YQR[pS]FDEVEGVF [YQRsFDEVEGVF]		binds
